Laboratory results from patent US11306156.
One block for each substance: values may come before it.

Tests used:
[1] = target: tissue factor (TF) antigen (UniProt P13726); assay: SPR, Fab captured by anti-penta-His, TF injected, 1:1 fit; batch C (+)
[2] = target: tissue factor (TF) antigen (UniProt P13726); assay: SPR; log change of median KD against wild-type D3H44 Fab; batch C (+)
[3] = target: D3H44 light chain Q124R_T178R, N-terminal HA or FLAG tag; assay: LCCA, SPR of light chain tags, L1:L2 DNA 1:3 norm. to 1:1; other light chain m25
[4] = target: D3H44 light chain Q124E_V133W_T180E, N-terminal HA or FLAG tag; assay: LCCA, SPR of light chain tags, L1:L2 DNA 1:3 norm. to 1:1; other light chain m14
[5] = target: D3H44 light chain Q124R_Q160K_T178R, N-terminal HA or FLAG tag; assay: LCCA, SPR of light chain tags, L1:L2 DNA 1:3 norm. to 1:1; other light chain m21
[6] = target: D3H44 light chain Q124E_S176L_T180E, N-terminal HA or FLAG tag; assay: LCCA, SPR of light chain tags, L1:L2 DNA 1:3 norm. to 1:1; other light chain m14
[7] = target: D3H44 light chain Q124E_T178E_T180E, N-terminal HA or FLAG tag; assay: LCCA, SPR of light chain tags, L1:L2 DNA 1:3 norm. to 1:1; other light chain m17
[8] = target: D3H44 light chain Q124R_Q160K_T178R, N-terminal HA or FLAG tag; assay: LCCA, SPR of light chain tags, L1:L2 DNA 1:9 norm. to 1:1; other light chain m21
[9] = target: D3H44 light chain Q124R_T178R, N-terminal HA or FLAG tag; assay: LCCA, SPR of light chain tags, L1:L2 DNA 1:3 norm. to 1:1; other light chain m16
[10] = target: D3H44 light chain Q124E_T178E_T180E, N-terminal HA or FLAG tag; assay: LCCA, SPR of light chain tags, L1:L2 DNA 1:9 norm. to 1:1; other light chain m17
[11] = target: D3H44 Fab heavy chain L143E_K145T_Q179E, ABD2-His6 tagged; assay: LCCA, SPR of light chain tags; L1:L2 DNA 1:9 normalized to 1:1; competing light chain m16
[12] = target: D3H44 Fab heavy chain S186K, ABD2-His6 tagged; assay: as above
[13] = target: D3H44 Fab heavy chain L143E_K145T_Q179E, ABD2-His6 tagged; assay: LCCA, SPR of light chain tags; L1:L2 DNA 1:3 normalized to 1:1; competing light chain m16
[14] = target: D3H44 Fab heavy chain S186K, ABD2-His6 tagged; assay: as above
[15] = target: D3H44 light chain Q124E_Q160E_T180E, N-terminal HA or FLAG tag; assay: LCCA, L1:L2 DNA 1:3, SPR of light chain tags; competing light chain m12
[16] = target: D3H44 light chain Q124E_T180E, N-terminal HA or FLAG tag; assay: LCCA, L1:L2 DNA 1:3, SPR of light chain tags; competing light chain m14
[17] = target: D3H44 light chain Q124R_T178R, N-terminal HA or FLAG tag; assay: LCCA, L1:L2 DNA 1:3, SPR of light chain tags; competing light chain m11
[18] = target: D3H44 light chain Q124R_T178K, N-terminal HA or FLAG tag; assay: as above
[19] = target: D3H44 light chain T178R, N-terminal HA or FLAG tag; assay: LCCA, L1:L2 DNA 1:3, SPR of light chain tags; competing light chain m13
[20] = target: D3H44 light chain Q124R_Q160K_T178R, N-terminal HA or FLAG tag; assay: as above
[21] = target: D3H44 light chain Q124E_Q160E_T180E, N-terminal HA or FLAG tag; assay: LCCA, L1:L2 DNA 1:3, SPR of light chain tags; competing light chain m16
[22] = target: D3H44 light chain Q124E_T180E, N-terminal HA or FLAG tag; assay: LCCA, L1:L2 DNA 1:3, SPR of light chain tags; competing light chain m10
[23] = target: D3H44 light chain Q124R_T178R, N-terminal HA or FLAG tag; assay: LCCA, L1:L2 DNA 1:9, SPR of light chain tags; competing light chain m11
[24] = target: D3H44 light chain Q124R_T178K, N-terminal HA or FLAG tag; assay: as above
[25] = target: D3H44 light chain Q124E_Q160E_T180E, N-terminal HA or FLAG tag; assay: LCCA, L1:L2 DNA 1:9, SPR of light chain tags; competing light chain m16
[26] = target: D3H44 light chain Q124E_Q160E_T180E, N-terminal HA or FLAG tag; assay: LCCA, L1:L2 DNA 1:9, SPR of light chain tags; competing light chain m12
[27] = target: D3H44 Fab heavy chain Q179R, ABD2-His6 tagged; assay: LCCA, SPR of light chain tags; L1:L2 DNA 1:9 normalized to 1:1; competing light chain m16
[28] = target: D3H44 Fab heavy chain Q179R, ABD2-His6 tagged; assay: LCCA, SPR of light chain tags; L1:L2 DNA 1:3 normalized to 1:1; competing light chain m16
[29] = target: tissue factor (TF) antigen (UniProt P13726); assay: SPR, His-captured Fab, TF as analyte, 1:1 fit; batch C (+)
[30] = target: tissue factor (TF) antigen (UniProt P13726); assay: SPR, His-captured Fab, TF as analyte; against wild-type D3H44 Fab; batch C (+)
[31] = target: D3H44 light chain Q124R_T178R with N-terminal HA or FLAG tag; assay: LCCA (SPR tag readout), L1:L2 DNA 1:9, normalized to 1:1; competing light chain m10
[32] = target: D3H44 light chain Q124E_T178E with N-terminal HA or FLAG tag; assay: LCCA (SPR tag readout), L1:L2 DNA 1:3, normalized to 1:1; competing light chain m9
[33] = target: D3H44 light chain Q124E_T178E_T180E with N-terminal HA or FLAG tag; assay: as above
[34] = target: D3H44 light chain Q124E_T180E with N-terminal HA or FLAG tag; assay: as above
[35] = target: D3H44 light chain Q124R_T178R with N-terminal HA or FLAG tag; assay: LCCA (SPR tag readout), L1:L2 DNA 1:9, normalized to 1:1; competing light chain m11
[36] = target: D3H44 light chain Q124R_T178R with N-terminal HA or FLAG tag; assay: LCCA (SPR tag readout), L1:L2 DNA 1:3, normalized to 1:1; competing light chain m11
[37] = target: D3H44 light chain Q124E_T180E with N-terminal HA or FLAG tag; assay: LCCA (SPR tag readout), L1:L2 DNA 1:3, normalized to 1:1; competing light chain m12
[38] = target: D3H44 light chain Q124R_Q160K_T178R with N-terminal HA or FLAG tag; assay: LCCA (SPR tag readout), L1:L2 DNA 1:3, normalized to 1:1; competing light chain m13
[39] = target: D3H44 light chain T178R with N-terminal HA or FLAG tag; assay: as above
[40] = target: D3H44 light chain Q124K_T178R with N-terminal HA or FLAG tag; assay: as above
[41] = target: D3H44 light chain Q124R_T178R with N-terminal HA or FLAG tag; assay: as above
[42] = target: D3H44 light chain Q124E_T180E with N-terminal HA or FLAG tag; assay: LCCA (SPR tag readout), L1:L2 DNA 1:3, normalized to 1:1; competing light chain m14
[43] = target: D3H44 light chain Q124E_T180E with N-terminal HA or FLAG tag; assay: LCCA (SPR tag readout), L1:L2 DNA 1:3, normalized to 1:1; competing light chain m19
[44] = target: D3H44 light chain Q124E_T178E with N-terminal HA or FLAG tag; assay: LCCA (SPR tag readout), L1:L2 DNA 1:9, normalized to 1:1; competing light chain m9
[45] = target: D3H44 light chain Q124E_T178E_T180E with N-terminal HA or FLAG tag; assay: as above
[46] = target: D3H44 light chain Q124R_T178R with N-terminal HA or FLAG tag; assay: LCCA (SPR tag readout), L1:L2 DNA 1:3, normalized to 1:1; competing light chain m10
[47] = target: D3H44 light chain Q124E_V133G_S176D_T178E_T180E; assay: LCCA (co-expression, SPR tag read-out), L1:L2 DNA 1:3 normalised to 1:1; competing light chain m7
[48] = target: D3H44 light chain V133G_S176D_T178D_T180E; assay: as above

Substance: H1L1 Fab heterodimer of LCCA sets 9898, 9893, 9891 and 9896 (D3H44 Fab, H1 S186R, L1 Q124E_T180E)
Kd [1]: 0.07 nM
Change in median values of KD of h1l1 Fab heterodimer compared to wild type (-(log(KD design)-log(KD wt))) [2]: 0.36 log units

Substance: D3H44 Fab heavy chain L124A_S186K, ABD2-His6 tagged
H1L1:H1L2 normalized median ratio [3]: 5%
H1L1:H1L2 normalized median ratio [4]: 95%
H1L1:H1L2 normalized median scalar value ln(r1/f1) [4]: 2.98

Substance: H1L1 Fab heterodimer of LCCA sets 9812 and 9811 (D3H44 Fab, H1 Q179R, L1 Q124E_T178E_T180E)
Kd [1]: 0.16 nM
Change in median values of KD of h1l1 Fab heterodimer compared to wild type (-(log(KD design)-log(KD wt))) [2]: -0.01 log units

Substance: D3H44 light chain Q124E_Q160E_T180E, HA or FLAG tagged
H1L1:H1L2 normalized median ratio [11]: 22%
H2L2:H2L1 normalized median ratio [12]: 94%
H1L1:H1L2 normalized median ratio [13]: 9%
H2L2:H2L1 normalized median ratio [14]: 94%

Substance: D3H44 Fab heavy chain L124A_Q179K, ABD2-His6 tagged
H1L1:H1L2 normalized median ratio [3]: 5%
H1L1:H1L2 normalized median ratio [4]: 95%
H1L1:H1L2 normalized median scalar value ln(r1/f1) [4]: 2.9

Substance: D3H44 Fab heavy chain S186R with C-terminal ABD2-His6 tag
H2L2:H2L1 normalized median ratio [31]: 18%
H2L2:H2L1 normalized median ratio [32]: 96%
H2L2:H2L1 normalized median ratio [33]: 93%
H2L2:H2L1 normalized median ratio [34]: 96%
H2L2:H2L1 normalized median ratio [35]: 18%
H2L2:H2L1 normalized median ratio [36]: 4%
H2L2:H2L1 normalized median ratio [37]: 97%
H2L2:H2L1 normalized median ratio [38]: 2%
H2L2:H2L1 normalized median ratio [39]: 4%
H2L2:H2L1 normalized median ratio [40]: 3%
H2L2:H2L1 normalized median ratio [41]: 4%
H2L2:H2L1 normalized median ratio [42]: 98%
H2L2:H2L1 normalized median ratio [43]: 96%
H2L2:H2L1 normalized median ratio [44]: 82%
H2L2:H2L1 normalized median ratio [45]: 82%
H2L2:H2L1 normalized median ratio [46]: 7%

Substance: H1L1 Fab heterodimer of LCCA sets 9858, 9853, 9855, 9862, 9863 and 9860 (D3H44 Fab, H1 S186K, L1 Q124E_T180E)
Kd [1]: 0.06 nM
Change in median values of KD of h1l1 Fab heterodimer compared to wild type (-(log(KD design)-log(KD wt))) [2]: 0.46 log units

Substance: D3H44 Fab heavy chain L124E_K145M_Q179E
H1L1:H1L2 normalized median ratio [47]: 6 parts of 100
H1L1:H1L2 normalized median ratio [48]: 6 parts of 100

Next, values leading:

H2L2:H2L1 normalized median ratio [5]: 6%
H2L2:H2L1 normalized median ratio [6]: 93%
H2L2:H2L1 normalized median ratio [7]: 94%
H2L2:H2L1 normalized median ratio [8]: 13%
H2L2:H2L1 normalized median ratio [9]: 7%
H2L2:H2L1 normalized median ratio [10]: 87%
Substance: D3H44 Fab heavy chain S186R, ABD2-His6 tagged

H2L2:H2L1 normalized median ratio [15]: 81 share of 100
H2L2:H2L1 normalized median ratio [16]: 98 share of 100
H2L2:H2L1 normalized median ratio [17]: 19 share of 100
H2L2:H2L1 normalized median ratio [18]: 17 share of 100
H2L2:H2L1 normalized median ratio [19]: 4 share of 100
H2L2:H2L1 normalized median ratio [20]: 2 share of 100
H2L2:H2L1 normalized median ratio [21]: 83 share of 100
H2L2:H2L1 normalized median ratio [22]: 96 share of 100
H2L2:H2L1 normalized median ratio [23]: 14 share of 100
H2L2:H2L1 normalized median ratio [24]: 11 share of 100
H2L2:H2L1 normalized median ratio [25]: 89 share of 100
H2L2:H2L1 normalized median ratio [26]: 86 share of 100
Substance: D3H44 Fab heavy chain S186R, C-terminal ABD2-His6 tag

H1L1:H1L2 normalized median ratio [11]: 8%
H2L2:H2L1 normalized median ratio [12]: 89%
H2L2:H2L1 normalized median ratio [27]: 90%
H1L1:H1L2 normalized median ratio [13]: 8%
H2L2:H2L1 normalized median ratio [14]: 95%
H2L2:H2L1 normalized median ratio [28]: 94%
Substance: D3H44 light chain Q124E_T178E_T180E, HA or FLAG tagged

Kd [29]: 0.18 nM
Change in median values of KD compared to wild type (-(log(KD design)-log(KD wt))) [30]: -0.06 log
Substance: D3H44 Fab heterodimer H1L1 of LCCA Set # 9885 and 9886 (H1 S186R; L1 Q124E_S176L_T180E)
